{"source": "paper doi:10.1101/2022.01.11.475947", "biological_target": "prefusion-stabilized SARS-CoV-2 spike protein (S-clamp) (SARS-CoV-2)", "assay": "SEC", "data": [{"substance": "prefusion-stabilized SARS-CoV-2 spike protein (S-clamp)", "values": [{"measurement": "stoichiometry N", "result": 3}]}]}
